Test results taken from US5786195.

System: T1, BssHII restriction endonuclease (bssHIIR) (Bacillus stearothermophilus H3)
T1 sequence: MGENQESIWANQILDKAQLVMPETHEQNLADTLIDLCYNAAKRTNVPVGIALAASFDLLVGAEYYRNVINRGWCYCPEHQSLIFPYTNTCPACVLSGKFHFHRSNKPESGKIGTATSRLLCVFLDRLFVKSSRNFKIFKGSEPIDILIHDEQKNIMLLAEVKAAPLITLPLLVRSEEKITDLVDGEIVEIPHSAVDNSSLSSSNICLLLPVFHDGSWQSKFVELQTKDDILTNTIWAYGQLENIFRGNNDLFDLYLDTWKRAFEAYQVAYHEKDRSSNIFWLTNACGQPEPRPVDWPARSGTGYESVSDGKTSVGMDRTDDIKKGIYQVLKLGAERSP
Assay: cleavage_in_vitro
Details: cell extract; activity seen after 10- and 100-fold dilution

Substance: lambda DNA (BssHII sites)
- activity (units per g wet cells): 100000
